Consider 1 protein from article PMC5751283, “A Split-Luciferase Reporter Recognizing GFP and mCherry Tags to Facilitate Studies of Protein–Protein Interactions” (International Journal of Molecular Sciences, 2017).

The data set deals with the molecule itself. Put plainly: split reporter (BiFC, NanoBiT); GFP- and/or mCherry-tagged targets expressed in Leishmania tarentolae extract (pairs co-expressed, self-associating proteins alone), serially diluted three-fold, mixed 1:1:1 with two split-nanoLuc fusions of anti-GFP or anti-mCherry nanobodies (SLN pairs GL/GS, LC/GS, CL/CS or LC/CFRS, also made in LTE); 10 min at 23 °C; buffer A (25 mM HEPES pH 7.4, 50 mM NaCl); background: ….

B1: mCherry–SOX9 (natural protein, UniProt P48436 1-509, looked up)
chain: MNLLDPFMKMTDEQEKGLSGAPSPTMSEDSAGSPCPSGSGSDTENTRPQENTFPKGEPDLKKESEEDKFPVCIREAVSQVLKGYDWTLVPMPVRVNGSSKNKPHVKRPMNAFMVWAQAARRKLADQYPHLHNAELSKTLGKLWRLLNESEKRPFVEEAERLRVQHKKDHPDYKYQPRRRKSVKNGQAEAEEATEQTHISPNAIFKALQADSPHSSSGMSEVHSPGEHSGQSQGPPTPPTTPKTDVQPGKADLKREGRPLPEGGRQPPIDFRDVDIGELSSDVISNIETFDVNEFDQYLPPNGHPGVPATHGQVTYTGSYGISSTAATPASAGHVWMSKQQAPPPPPQQPPQAPPAPQAPPQPQAAPPQQPAAPPQQPQAHTLTTLSSEPGQSQRTHIKTEQLSPSHYSEQQQHSPQQIAYSPFNLPHYSPSYPPITRSQYDYTDHQNSSSYYSHAAGQGTGLYSTFTYMNPAQRPMYTPIADTSGVPSIPQTHSPQHWEQPVYTQLTRP
notes: SOX9; also called SOX9–mCherry; mCherry homodimer; source: Leishmania tarentolae cell-free extract (LTE), not purified
As to B1, the signal-to-background ratio was determined as 5.
